According to US20240270854A1 (Stanford University, published 2024):

How the values were obtained:
[1] = target: BMPR1a on skeletal stem cells; assay: cell-based or functional assay
[2] = target: BMPR2 on skeletal stem cells; assay: cell-based or functional assay
BMPR2 on skeletal stem cells, sequence (Q13873 whole entry): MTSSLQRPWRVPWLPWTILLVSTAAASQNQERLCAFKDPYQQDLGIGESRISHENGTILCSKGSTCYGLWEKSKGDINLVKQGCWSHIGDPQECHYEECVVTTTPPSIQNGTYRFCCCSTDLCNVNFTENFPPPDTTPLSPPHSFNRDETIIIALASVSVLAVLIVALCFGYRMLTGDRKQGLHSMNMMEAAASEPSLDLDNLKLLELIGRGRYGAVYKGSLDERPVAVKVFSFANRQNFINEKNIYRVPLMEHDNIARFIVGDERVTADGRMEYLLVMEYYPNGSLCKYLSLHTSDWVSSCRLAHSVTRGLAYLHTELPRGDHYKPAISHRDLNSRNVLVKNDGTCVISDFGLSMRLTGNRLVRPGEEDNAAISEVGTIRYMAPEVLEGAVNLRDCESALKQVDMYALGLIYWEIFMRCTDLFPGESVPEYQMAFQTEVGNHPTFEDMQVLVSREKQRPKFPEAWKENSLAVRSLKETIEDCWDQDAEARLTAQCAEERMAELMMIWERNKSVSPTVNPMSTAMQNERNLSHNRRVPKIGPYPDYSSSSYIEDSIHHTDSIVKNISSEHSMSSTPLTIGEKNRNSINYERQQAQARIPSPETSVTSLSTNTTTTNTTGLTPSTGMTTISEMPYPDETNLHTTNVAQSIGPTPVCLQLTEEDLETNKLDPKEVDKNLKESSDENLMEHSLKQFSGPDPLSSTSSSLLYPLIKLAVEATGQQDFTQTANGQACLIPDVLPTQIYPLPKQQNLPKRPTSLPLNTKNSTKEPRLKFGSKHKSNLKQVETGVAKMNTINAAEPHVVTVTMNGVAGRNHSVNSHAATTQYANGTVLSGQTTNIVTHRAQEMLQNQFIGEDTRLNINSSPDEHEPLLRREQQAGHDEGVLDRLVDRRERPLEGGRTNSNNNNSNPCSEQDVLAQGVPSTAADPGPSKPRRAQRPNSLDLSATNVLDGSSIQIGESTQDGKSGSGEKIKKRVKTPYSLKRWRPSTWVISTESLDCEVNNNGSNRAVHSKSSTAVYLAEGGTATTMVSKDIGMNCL

BMPR1a on skeletal stem cells, sequence (P36894 whole entry): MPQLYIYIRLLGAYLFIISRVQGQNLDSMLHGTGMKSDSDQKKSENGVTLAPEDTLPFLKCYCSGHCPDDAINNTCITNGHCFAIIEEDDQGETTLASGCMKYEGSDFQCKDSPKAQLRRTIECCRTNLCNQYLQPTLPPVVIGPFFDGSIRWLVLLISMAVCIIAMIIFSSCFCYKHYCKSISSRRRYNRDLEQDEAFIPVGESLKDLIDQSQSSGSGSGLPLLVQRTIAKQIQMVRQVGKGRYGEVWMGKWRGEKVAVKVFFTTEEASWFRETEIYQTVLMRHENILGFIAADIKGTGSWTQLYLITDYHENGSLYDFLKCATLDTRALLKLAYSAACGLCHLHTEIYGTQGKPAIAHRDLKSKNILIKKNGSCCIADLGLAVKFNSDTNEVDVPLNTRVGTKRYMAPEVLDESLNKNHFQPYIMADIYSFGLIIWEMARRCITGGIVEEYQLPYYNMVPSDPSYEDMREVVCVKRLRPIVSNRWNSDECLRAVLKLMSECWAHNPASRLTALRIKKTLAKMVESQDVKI

B1: (NB1-4)-(NB2-43) (bispecific antibody)
chain: QVQLQESGGGLVQAGGSLRLSCAASGTIFYFSIMGWYRQAPGKEREFVAGIGVGSNTYYADSVKGRFTISRDNAKNTVYLQMNSLKPEDTAVYYCAAFDSISGELQYWGQGTQVTVSSGGGGSGGGQVQLQESGGGLVQAGGSLRLSCAASGSISSATVMGWYRQAPGKEREFVAAITAGGTTNYADSVKGRFTISRDNAKNTVYLQMNSLKPEDTAVYYCAVVVFTSQDRIYYYRYWGQGTQVTVSS
Q: For B1, which “p-smad1/5 signaling in SSCs after 30 minutes treatment” value [1] is on record?
A: 3 folds higher activation than control

Q: What about the “p-smad1/5 signaling in SSCs after 30 minutes treatment” value [2] of the same binder?
A: 3 folds higher activation than control
